Experimental data published in PMC5430844, “RRM domain of ALS/FTD-causing FUS characteristic of irreversible unfolding spontaneously self-assembles into amyloid fibrils” (Scientific Reports, 2017).

Assays:
[1] = target: the molecule itself; experiment: time-lapsed intrinsic UV and visible fluorescence, ThT-binding fluorescence, far-UV CD and negative-stain EM of an incubated sample; RRM alone, 40 µM in 1 mM phosphate buffer pH 6.8, incubated at 25 °C up to 12 days; EM at 3, 6 and 10 days; monomer to amyloid fibrils
[2] = target: the molecule itself; experiment: 1D 1H NMR line broadening and intensity loss; N-terminal LC domain alone, 40 µM, 25 °C, 1 mM phosphate buffer, pH 6.8 compared with pH 5.0; non-exchangeable protons over −0.4–1.8 ppm

Protein	binding result [1]	binding result [2]
FUS RRM domain (282–371) (domain or fragment, human, UniProt P35637 282-371, looked up, Fused in Sarcoma/Translocated in Sarcoma (FUS), 526 residues, RNA-recognition motif, residues 282-371 (N-terminal residue Ser282); Cloned by PCR from FUS cDNA into a modified pET28a; The introduction gives the RRM as 285–371, but the construct used is 282–371; also called FUS (282–371); RNA-recognition motif) SDNNTIFVQGLGENVTIESVADYFKQIGIIKTNKKTGQPMINLYTDRETGKLKGEATVSFDDPPSAKAAIDWFDGKEFSGNPIKVSFATR	binds	–
FUS N-terminal low-sequence complexity (LC) domain (1–267) (domain or fragment, human, UniProt P35637 1-267, looked up, Fused in Sarcoma/Translocated in Sarcoma (FUS), 526 residues, N-terminal LC domain, residues 1-267 (QGSY-rich prion-like region 1–165 and G-rich region 166–267); Cloned by PCR from FUS cDNA into a modified pET28a; also called N-terminal LC domain; FUS (1–267)) MASNDYTQQATQSYGAYPTQPGQGYSQQSSQPYGQQSYSGYSQSTDTSGYGQSSYSSYGQSQNTGYGTQSTPQGYGSTGGYGSSQSSQSSYGQQSSYPGYGQQPAPSSTSGSYGSSSQSSSYGQPQSGSYSQQPSYGGQQQSYGQQQSYNPPQGYGQQNQYNSSSGGGGGGGGGGNYGQDQSSMSSGGGSGGGYGNQDQSGGGGSGGYGQQDRGGRGRGGSGGGGGGGGGGYNRSSGGYEPRGRGGGRGGRGGMGGSDRGGFNKFGG	–	binds
